Molecular target: SARS-CoV-2 spike protein (SARS-CoV-2, UniProt P0DTC2)
Assay: spectroscopic ellipsometry, immobilised aptamer; PBS (137 mM NaCl, 2.7 mM KCl, 10 mM phosphate, pH 7.4); […]
Conditions: protein: commercial; chain copies: 3

B1: spike aptamer (ssDNA)
DNA: CAGCACCGACCTTGTGCTTTGGGAGTGCTGGTCCAAGGGCGTTAATGGACA
modifications: 5' amine
Does B1 bind?
Result: binds
